In the assay the target is SARS-CoV-2 Spike RBD-His Recombinant Protein (SARS-CoV-2) (UniProt P0DTC2). The assay can be described thus: monoclonal phage ELISA, SPIKE RBD coated 200 ng/well; helper phage control.

The text below walks through data of patent publication US20220089692A1.

In the case of M13KO7 auxiliary phage, the ELISA signal (OD450) is 0.0434.
